From US20080181899A1 (Regeneron, published 2008)

T1: M. facscicularis DII4 monomer (M. facscicularis, UniProt Q9NR61 27-524 (human entry))
T1 construct: also called mfDII4
T1 chain: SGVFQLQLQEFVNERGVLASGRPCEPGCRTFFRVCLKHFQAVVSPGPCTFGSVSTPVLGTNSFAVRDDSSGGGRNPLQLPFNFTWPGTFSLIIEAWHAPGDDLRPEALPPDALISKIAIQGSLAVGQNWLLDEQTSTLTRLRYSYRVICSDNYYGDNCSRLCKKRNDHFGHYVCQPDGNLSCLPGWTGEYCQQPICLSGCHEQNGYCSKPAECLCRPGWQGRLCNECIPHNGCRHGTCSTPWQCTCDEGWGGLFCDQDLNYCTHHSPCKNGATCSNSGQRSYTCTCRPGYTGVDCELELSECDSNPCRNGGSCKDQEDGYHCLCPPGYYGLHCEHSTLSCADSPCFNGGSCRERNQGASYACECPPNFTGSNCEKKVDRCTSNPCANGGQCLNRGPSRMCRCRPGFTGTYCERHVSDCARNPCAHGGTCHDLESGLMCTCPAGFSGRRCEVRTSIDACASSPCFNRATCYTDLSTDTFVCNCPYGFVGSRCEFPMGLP

T2: M. mulatta DII4 monomer (M. mulatta, UniProt Q9NR61 27-524 (human entry))
T2 construct: also called mmDII4
T2 chain: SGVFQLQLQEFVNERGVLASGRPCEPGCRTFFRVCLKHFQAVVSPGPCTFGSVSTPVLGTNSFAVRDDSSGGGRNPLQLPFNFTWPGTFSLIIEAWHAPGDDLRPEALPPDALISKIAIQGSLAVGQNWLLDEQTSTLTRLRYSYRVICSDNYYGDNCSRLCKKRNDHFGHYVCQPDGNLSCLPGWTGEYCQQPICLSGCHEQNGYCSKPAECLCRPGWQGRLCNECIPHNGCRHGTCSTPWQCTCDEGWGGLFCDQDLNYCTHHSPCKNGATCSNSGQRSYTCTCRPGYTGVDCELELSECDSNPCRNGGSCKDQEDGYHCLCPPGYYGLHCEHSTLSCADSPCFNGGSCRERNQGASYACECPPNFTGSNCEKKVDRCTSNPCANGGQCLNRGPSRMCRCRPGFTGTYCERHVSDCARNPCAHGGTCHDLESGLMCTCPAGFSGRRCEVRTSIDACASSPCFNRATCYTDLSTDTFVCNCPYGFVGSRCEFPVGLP


Assays:
dimeric hDII4-hFc = dimeric hDII4-hFc (human, UniProt Q9NR61 27-524, biotin in Example 3 (biotin-DII4-hFc), site not stated); assay: cell-based or functional assay
[1] = target: T3, monomeric hDII4 (human delta-like ligand 4) (human, UniProt Q9NR61 27-524); assay: SPR BIACORE; antibody captured by anti-hFc; monomer analyte
T3 construct: also called monomeric DII4 protein
Description: (§1) The binding affinities of selected purified antibodies to hDII4, M. facscicularis DII4 (mfDII4, SEQ IN NO:956), and M. mulatta DII4 (mmDII4, SEQ ID NO:957) monomers were determined using a BIACORE™ 2000 & 3000.

[2] = target: T1, M. facscicularis DII4 monomer; assay: as above
Description: as §1

M. mulatta DII4 monomer = target: T2, M. mulatta DII4 monomer; assay: as above
Description: as §1

[3] = target: T4, chimeric DII4 protein #6 (human DSL domain, V173-Q218, in mouse DII4) fused to mouse IgG2a-Fc (mouse; human, UniProt Q9JI71 28-173; Q9JI71 220-525); assay: SPR BIACORE; DII4 protein captured by anti-mouse IgG; antibody at 100 µg/ml
T4 construct: not shown: mouse IgG2a-Fc fragment
Description: (§2) Briefly, each of the DII4 proteins was captured (240-470 RU) on goat anti-mouse IgG antibody surfaces, followed by injection of test antibody at a concentration of 100 μg/ml (Table 11).

[4] = target: T5, chimeric DII4 protein #1 (human N-terminal and DSL domains, S27-Q218, in mouse DII4) fused to mouse IgG2a-Fc (human; mouse, UniProt Q9JI71 220-525); assay: as above
T5 construct: Used as CHO-K1 conditioned medium; not shown: mouse IgG2a-Fc fragment
Description: as §2

[5] = target: T6, chimeric DII4 protein #3 (human N-terminal, DSL, EGF-1 and EGF-2 domains, S27-Q283, in mouse DII4) fused to … (human; mouse, UniProt Q9JI71 285-525); assay: as above
T6 construct: not shown: mouse IgG2a-Fc fragment
Description: as §2

[6] = target: T7, chimeric DII4 protein #5 (human N-terminal domain, S27-R172, in mouse DII4) fused to mouse IgG2a-Fc (human; mouse, UniProt Q9JI71 174-525); assay: as above
T7 construct: not shown: mouse IgG2a-Fc fragment
Description: as §2

mDII4-mFc = target: T8, mDII4-mFc (mouse, UniProt Q9JI71 28-525); assay: SPR BIACORE; DII4 protein captured by anti-mouse IgG; antibody injected
T8 construct: also called mouse DII4-mFc; not shown: mouse Fc
Description: as §2

Binder	Notch-inducible luciferase assay IC50 (pM), 1 nM hDII4-hFc (dimeric hDII4-hFc) [pM]	Notch-inducible luciferase assay IC50 (pM), 1.5 nM hDII4-hFc (dimeric hDII4-hFc) [pM]	Kd [1] [nM]	koff [1] [s⁻¹]	kon [1] [M⁻¹ s⁻¹]	Kd [2] [nM]	koff [2] [s⁻¹]	kon [2] [M⁻¹ s⁻¹]	Kd (M. mulatta DII4 monomer) [nM]	koff (M. mulatta DII4 monomer) [s⁻¹]	kon (M. mulatta DII4 monomer) [M⁻¹ s⁻¹]	binding result [3]	binding result [4]	binding result [5]	binding result [6]	binding result (mDII4-mFc)
318518-01A10-D8 (antibody, human IgG1, HCVR 429 with hIgG1 constant region 950; also called REGN281; 318518-1A10-D8) heavy: not shown VL: EIVMTQSPATLSLSPGERATLSCRASQSVSSYLAWYQQKPGQAPRLLIYDASNRATGIPARFSGSGSGTDFTLTISSLEPEDFAVYYCQHRSNWPPTFGGGTKVEIK	50.5	78.7	0.148	2.3e-05	156000	0.307	2.04e-05	66400	0.329	3.05e-05	92700	binds	binds	binds	binds	no binding (tested: 100 µg/ml)
REGN421 (antibody, human IgG1, HCVR 901 with hIgG1 constant region 950) heavy: not shown VL: EIVLTQSPATLSLSPGERATLSCRASQSVSSYLAWYQQKPGQAPRLLIYDASNRATGIPARFSGSGSGTDFTLTISSLEPEDFAVYYCQHRSNWPPTFGGGTKVEIK	54.4	87.3	0.133	2.17e-05	163000	0.278	2.02e-05	72800	0.333	3.23e-05	97000	binds	binds	binds	binds	no binding (tested: 100 µg/ml)
REGN422 (antibody, human IgG4 S228P, HCVR 901 with modified hIgG4 constant region 952) heavy: not shown VL: EIVLTQSPATLSLSPGERATLSCRASQSVSSYLAWYQQKPGQAPRLLIYDASNRATGIPARFSGSGSGTDFTLTISSLEPEDFAVYYCQHRSNWPPTFGGGTKVEIK	88.2	131	0.144	2.36e-05	164000	0.36	2.88e-05	80100	0.375	3.41e-05	92700	binds	binds	binds	binds	no binding (tested: 100 µg/ml)
